Experiment: label from the status in PepcDB records

## MSDTLYIKMDQAVEITKKQVTVGDVAKLQCKNKNITNRLKSMKLLEDTTKGKKRYIVSIMKIIEMADQTFQNVDIQNIGETECVVEFKTPKKDDGPM
  protein production: not failed

## MPKIPITLITGFLGSGKTSFLSEYLNQTDHQGVALIINEIGQAALDQRILSVQYCGEKMLYLNAGCVCCNKRLDLVESLKATLNNYEWHGEILRRIIIETTGLANPAPILWTILSDTFLGVHFEIQSVVACVDALNAREHLTNNEAKEQIVFADSVLLTKTDLQNDSAALTKLKERIQALNPSAEIFDKRAIDYESLFSRKNRARNFMPLEHHHHHH
  protein production: failed

## MLDSAQLIFDLQKVNTTSKRISGCLDTTAITKEITEALIHDFHCVFARIWLTEPDGASLKLVASSGLHTSTNGSFARVPMGAYKVGKIAQSCIPFLSNHLANETWVKDRDWAIANNIRGFAGYPLVGHDRVIGVLAVFSEAPFVAEFLEVLQVLCMAVAIAIDAVRQLQSETNTINTTQFLDDQIP
  protein production: failed

## MGLSSLPGPSEGMLCVILVNTALSISIVKGIVRSFLGIVGISLSPSSSSPSSVTVSSENSSTSESFDFRVCQPESYLEEFRNRTPTLRFESLCRCKKQADNECSVCLSKFQGDSEINKLKCGHLFHKTCLEKWIDYWNITCPLCRTPLVVVPEDHQLSSNVW
  protein production: failed

## SQYKNISEKIVHIIQQEFDTDLTLESIAGRLHYNPNYLSSIFRKEMKISFSEYLSSYRHHIAKNWLTETTMSVKEISEKLKYKNPQNFIRSFKKLEGITPGKYRELKNHS
  protein production: not failed

## MQPFYIKKGRGSVIYSSVRKDLPPFHLFQMGKYSVVEDFSCLNNAVGDIVIGDYCRIGLGNTVIGPIRIDNGVNISQNVVLIGLDHNYQDITQGIIEQGITTSPIHIGEHTIIGANVIVLPGITIGKHCFIGAGCVVTQNIPDYCVTVGNPARIIKRYNPQSQTWEKILEHHHHHH
  protein production: failed

## MGRLSVAPLAQLNRLRVRLSLVFVLFLLLVIGLGAFSINRLSAFHNVAAEISGRWLLSNRIAGDLNNSISDFRATEGELLTARRGKDRGRAEGSLAVLDEEIADAKRRYETIEHDPIELDLYRQFSEQWRAYRELANRVLVLSQRDDKTDAIALYYQESRRAFTVANATLATLTERNVTGANEATQAEAVAYRHARDLIVNAIIVAALLMIAGVLYFVTAVTNPIAELVDRMHRISDNETEIDIPSTERPDEVGEIARAVVRFRDNTVALAQSRATLAEQARTLEITLANERRMAELQRNFVSMVSHEFRTPLTVIDGYAQRLSHIKPPLSLEAVQDRSSRIRAAVRRMTALIEDMLGASQVLDLATPGAFQRTEFSLHLLVHEVCEMHRESSPDAQIVEQWHADVPEVFHGDARLLFQAVSNLIGNAVKYSPPKTPVSVDVSMESGAILICVADQGIGIPEKDLGHVFERYVRGANVTGTAGAGVGLYIVRLAAELHGGTVSVRSAEGTGSRFLLRLPEAPAPAPLSA
  protein production: failed

## DPLDNLVAPTAAAAAAAAGKKKQPSAAAAAATKTTANKVANSNNKANAGSNIGGPNAKKPNQAEKENKPNNALNKTDGKKFTPSADNKQQQFNNNASSNYK
  protein production: failed

## MQPELTKTPANFPLSPLGAVVILGDIPNPELLAIPLAPTPSTMFGPRGACLVAETGALWVSDTGHHRLLGWRKLPTTDSQPADWVIGQPDFYHEGQNAKGTPGRTTVSVPTGICVCGGGLAIADAWNHRVLIWHKIPEDSNVPADLVLGQRNFSENEPNRGKQSPDANTMHWPYGVAYHQGKLFVADTGNRRLLIWQQLPTENGQPADIVLGQPDMISRNENGGGSPTAGSMRWCHDIAFWDDNLVVTDAGNNRVMIWQGIPTENNAPCAVVLGQKSFDLVEMNQGVYFPSAGSLSMPYGVGATEDWLMVADTANSRLLGWRKRESILLLQGAIADGIIGQNSFQSKSENRHFGLPTRDSLNWCYGVKVCGSTAVISDSGNNRVLLWRFLLEHHHHHH
  protein production: failed

## MLQKDPCLDDILENSEKLENNSNKKNIDSIDTIKLSDIIEKMIEINSIVRIEKIFEEKIVSQNPVVNVVVNDGSARGLLSLWSEQISLLNELNEGDAILIENAHAPKKYKDRIHLALSKSGKISKIESDLPTIDELLKKSSAQRNDFSRKSISELKEGIGAELRGLIVAIHSKEPYFPVCDKCNKKMTLKKGYAVCKCGNKVDEEDENLKWLFLCTCTLDDGSGTIRVTLNNNTNYLDLEELKKIIIDDEEILDVLNNKLLGLDILTSGFTIYDEYLKDTAFRCNNWNKIDIMEEFNKKLKGLEHHHHHH
  protein production: not failed

## MKLIGITGMPGSGKSAITKLAEKYKIVVVSMGDVVRYETLKQGMPLNPENVGNTAVKLREIYGKEAIAVPCLNYVNEKYNNEDFVIIEGIRSIYEVNYIKKHAELDIIAIHSSPKTRFERLSGRNREDDSNDWNTFVERDERELNFSIGRVISLADYMVVNEGNYMDFVNDLENTFKKIINVN
  protein production: not failed

## MEEKKIVELEKQVEDYRQFGFVLLSLSIFLFIGLVLPPSYAPQVAAEWLIAGIGGALTFAWLFNRKVVQCQQKLFEEEDQQ
  protein production: failed

## MNSYDETVQDIITAVGGKDNIEEVFHCVARLRFYLKDSTQLNKTILQKNSNIYDFKFENNQLQILIGSDVNKYYKALMKCINEDKDFSKAKKGNIKMSKSSDKDKQLAEQIVKLVGGKENVNSLIHCVTRLRFKLKDESKADDEAIKNLHGVMGVAHAGGQYQVIIGNNVTDIYDQVMPLLGLSSEQEVTQDDEKEGNIFSRLVALISSLFMPLLGVMTGAGMLKGLLVLFGVLGWVKQGTGTYMILNAAADALFYFLPILLGFTAGKTFKINPFVGAVTGGALVYPSMVAAATAHKAITFLGIPVNLMNYSQTMLPIVIAIWGMSWLEKGTKKIIPSSVRNLFVPLLDLMIVVPLAYIIIGPIMQTLSQWLSEASLWIYGILPVAAGFIIGGIWQGAVILGLHWAFIPVLMNNLMTNHFDPINGIMYCTLFGQVGACFAMGLKAKDKNFKEIAIPAAISGLVGITEPIIYGVTLPHKKAFAFASVGSAFGGAIAAACHAGMYTMPGGGIFGIPAFINPKGINMQFYGFLISLLVAIVVSFVLTMIFGDTVVPSAPKAKVQVKKAEFKDQAIYSPLEGTVVELKDVKDPVFSAGTIGKGIAVKPTNNEVRAPFDGKVISVFPTKHAIGLKSENGVELLIHLGIDTVNLQGKYFDSMVKDGQEIKKGDLIEKFDVQAIQEAGYDTVVPIVVTNSNNFDDVISEKKNGDKVNFGDQLLMATVEQDVNVQDSSIAKA
  protein production: failed

## MLLYNKQKKNQNAKGNRILISVTVLGSAGPIRFVAYEDDLVASVIDTALKGYAREGRLPLLGSDFNDFLLYCPMVGPEALSTWDAIGSLGARNFMLCRKPEEKKVEESNGRSDSTINGARKGGSLKAWINKSFNLKVSSH
  protein production: failed

## PSARDILQQGLDRLGSPEDLASRIDSTLLSPRATEEDVRNLVREASDYGFRCAVLTPVYTVKISGLAEKLGVKLCSVIGFPLGQAPLEVKLVEAQTVLEAGATELDVVPHLSLGPEAVYREVSGIVKLAKSYGAVVKVILEAPLWDDKTLSLLVDSSRRAGADIVKTSTGVYTKGGDPVTVFRLASLAKPLGMGVKASGGIRSGIDAVLAVGAGADIIGTSSAVKVLESFKSLV
  protein production: not failed

## KNFNPPTRRNWESNYFGMPLQDLVTAEKPIPLFVEKCVEFIEDTGLCTEGLYRVSGNKTDQDNIQKQFDQDHNINLVSMEVTVNAVAGALKAFFADLPDPLIPYSLHPELLEAAKIPDKTERLHALKEIVKKFHPVNYDVFRYVITHLNRVSQQHKINLMTADNLSICFWPTLMRPDFENREFLSTTKIHQSVVETFIQQCQFFFYNGEIVE
  protein production: not failed

## MVSYPVWDSAMFAYTISSHILLVTLTLGLALLITISEFIGIKYKNRYFLTLARKASTALVINFAVGTASGIFMAVELYLFWPEFMKVVGAVAMSAFYAEVFAFLLESITLMMYVYFWDNFKNRWNHWLTSIGVLVGTGGSAALITDVNAWMNTPEGSFNIPYYLKTGIITDVNPWKVFWEPSTFAEQFHMYAVEYFAGSMMLLGYFAYKYLRSSGADERLVYSAGLKILSVIAIIDIIIVGASGSNELDTLLVVEPLKYAALEQDMVPVTYGAPEHIFGIIINGHPAYYVNLPLAQSLLAYPFTFGHGYIPGLSSYPSSVWPPSFVHDTLDLMVGFGLLMGFFWLIVVIMYFMKKDPLNKRSVLKALMFFSGMAVYTMEDGWYTAEVGRVPGIILYDKPPYYVMTIGQAASTSPVVFPLGMAIIIFYIVLIPLTLYFMAKVLKVSNIEDDLRHADDDLSKVGKSTPAGMR
  protein production: failed

## MPTPPAASSLAAQMGESPAPLYARVKHMIALQIQNGTWPPHHRVPSESELVTQLGFSRMTINRALRELTVEGLLVRMQGVGTFVAEPKSQSALFEVHNIADEIAARGHRHTCKVMVLKEEAAGSERALALDMREGQRVFHSLIVHFENDIPVQIEDRFVNAQVAPDYLKQDFTLQTPYAYLSQVAPLTEGEHVVEAILAEADECKLLQIDAGEPCLLIRRRTWSGRQPVTAARLIHPGSRHRLEGRFTK
  protein production: not failed

## MTGFAPQAGLPSHSVQVADHFDGNSPRGSPMSSGGHPVDRNRGLQPQKEAFSGPAAGKPFHPQALSKYSRHYSPEDELSAEAQPIAAYKIVSQSNKQLLAGSVSVTSLSSRTTELATADPFALAPFPSKAGKQKP
  protein production: failed

## MHDGSVFYTIFLIFAGAAFFSTLVLYTKQSLLVAYITLGAILGPWGFKLVSDVTVVKQIGDIGIVFLLFLLGLHLQPQNLIHMLRKVTWIAIVSSILFAALAYGIGRWFGLTVTESLILGGAMMFSSTIIGLKLLPTTILHHQHTGEVMISVLLMQDVIAIVLLILLNSAHQDGNLSISDFILVIIALPALCLFSFLFERYILIKLLARFDRTQEYVFLLSIGWCLGISVLAQTIGLSEDIGAFIAGVALASSPISLFIAESLKPLRDFFLVMFFFSIGATFNFGFGAQVVIPAVILATLILIIKPLLFYILLARSGEKKQVAKEVGIRLGQGSEFSLLVASIALSTNLISEVASNLIQATTILTFIVSSYLVVLKYPTPIALSEKMRKD
  protein production: failed

## SLYDPAEKYFNCTDIQRAFFEAGIKLGAIFHQYTGIPVNSENASMAEEFIERSTMIQPFVENVRISINNVKRSSGTYSYSSLNEKMLHAEVLINYNGKKVLGVLNYDEGLDYPVMYAKEVL
  protein production: not failed

## MDANEFHWLMDMLESVEVGLVVLDLDFHVQAWNGFMEHHSGITARQIRDKVLFEVFPDIPEAWLTRKVDAVAMLNTRAFTSWEQRPYLFKFRNTRPITGTEEYMFQNLTISPITAPNGEVEKVCLLVYDVTEFASSKRALERANEQLAKLSMTDRLTGLLNRGTWENLVDAEYERFRRYGQATSLVMFDIDHFKPVNDTYGHLAGDEVIRHTADVTRNNIRQSDSAGRYGGEEFGIILPETDAESARVICERIREAIEKSTVSTSAGDIQYTVSMGIAQLTETPENYMQWMQKADEALYKAKESGRNKVVVSLEHHHHHH
  protein production: failed

## MSLIFTAIVVFLFILAIFDLIVGVSNDAVNFLNSAIGAKAAPFKIIVGVAALGVFCGAAMNNGMMEIARHGIFRPEHYTFSELMVVFLSVVITDVVLMDMFNSLGMPTSTTVSLIFELLGGSFFMAMTKVGGTVGFQDLLNTEKALSVILGIFLSVGIAFFFGMVVQYLSRLLFTFNYRRNLRWLAGLFGGVAVTSIIYFMLIKGLKGVSFMTEESTAWIAANTGRLVLYCLVVSIILMQVLYWLRVNVFKVIVLLGTFALAMAFAGNDLVNFIGVPLAGYSSYLDFNANGNGQYDTYLMGALNEPASTPVYFLVAAGIVMVYALITSKKAHNVIKTSVDLARQEEGEEMFGSSGLARSIVRFSTTTANAVSRIIPRPVGRWIDSRFNQDELIMAKGAAFDLVRASVNLVLAGLLIAFGTSLRLPLSTTYVAFMVAMGTSLADRAWSRESAVFRITGVFSVIGGWFITAGAAFILCFLVTMVNHFGGYPAMAGMIILAIFLLVRSHIRFDKKKKSETKDTVFIDMMASHDKEEIWQLLAKHIRQKQLALLDFAENNYMQMTDGFINEDLKRLRRSINDQNAERQMLKVNRRKETLGIRRIEEAKSVVKNTWFHLGCNSCEQIVFCLKRIAEPCKEHVDNNFNPLPKVCVSEFLAAREKLILYIKEAKLIVSNETDEILDPMTYRGKDIKKELKQLRKTQLSRIQQGASSLKISLVYLNLLQESQQLVNILDDLIHATEKLFDPVARIGTDEEFFN
  protein production: failed

From a protein production outcome set (Wang et al. 2014)
